Measured values from article PMC4405576, “The Crystal Structure and Small-Angle X-Ray Analysis of CsdL/TcdA Reveal a New tRNA Binding Motif in the MoeB/E1 Superfamily” (PLoS ONE, 2015).
pKd: −log10 of the molar value. Blank lines part the entries; values can stand above or below the compound they belong to.

How the values were obtained:
CsdL/TcdA = molecular target: T1, CsdL/TcdA (Escherichia coli, UniProt Q46927); test: X-ray crystallography; conditions: crystals in 0.05 M potassium phosphate, 10% PEG1000, basic pH, 20 °C; 1.77 Å; K+ and Na+ bound; nucleotide-binding site crystallisation; 1.89 Å; AMP as obtained directly from the cell (co-purified); n
T1 sequence (Q46927 1-268): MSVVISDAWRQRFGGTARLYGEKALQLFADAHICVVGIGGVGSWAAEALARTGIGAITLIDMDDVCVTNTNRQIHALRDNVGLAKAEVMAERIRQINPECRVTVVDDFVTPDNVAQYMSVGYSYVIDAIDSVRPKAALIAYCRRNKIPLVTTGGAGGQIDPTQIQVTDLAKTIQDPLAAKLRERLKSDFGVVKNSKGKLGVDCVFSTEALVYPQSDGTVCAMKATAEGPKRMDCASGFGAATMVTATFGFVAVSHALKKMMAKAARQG

[1] = molecular target: tRNA threonylcarbamoyladenosine dehydratase A (TcdA) (E. coli) (UniProt Q46927); test: SEC; analytical gel filtration of TcdA alone; data not shown
[2] = molecular target: tRNA threonylcarbamoyladenosine dehydratase A (TcdA) (E. coli) (UniProt Q46927); test: AUC; sedimentation velocity and sedimentation equilibrium, 20°C, 20 mM HEPES, 100 mM KCl, 50 mM NaCl, pH 7.4; TcdA alone
[3] = molecular target: tRNA threonylcarbamoyladenosine dehydratase A (TcdA) (E. coli) (UniProt Q46927); test: SAXS; purified TcdA, batch setup, three concentrations between 0.5-5 mg/ml, 5°C, 20 mM sodium/potassium phosphate pH 7.4, 300 mM NaCl, 2 mM β-mercaptoethanol
[4] = tested on: TcdA (CsdL) (Escherichia coli); test: intrinsic fluorescence quenching; conditions: native tRNA modifications possible, not determined

Compound: Nc1ncnc2c1ncn2[C@@H]1O[C@H](COP(=O)(O)O)[C@@H](O)[C@H]1O [AMP]
X-ray crystallography (CsdL/TcdA): the nucleotide-binding residues stabilize AMP in a manner analogous to ATP

stoichiometry N [1]: 2
stoichiometry N [2]: 2
stoichiometry N [3]: 2
Compound: tRNA threonylcarbamoyladenosine dehydratase A (TcdA) (from UniProt Q46927 1-268) (enzyme)

Compound: tRNALys(UUU), overexpressed in E. coli
pKd [4]: 5.52
